According to publication PMC6555819, “Comprehensive study of nuclear receptor DNA binding provides a revised framework for understanding receptor specificity”:

Key:
PPARg:RXRa = PPARg:RXRa (Homo sapiens, UniProt P37231;P19793 full;full); assay: no ligand; PBM; 180 nM : 90 nM RXRa; PBS pH 7.4, 2% milk, 0.02% Triton X-100, 1 mM DTT, BSA, 0.4 mg/ml salmon testes DNA; conditions: tags: His kept;His cleaved; copies: 1;1; label: surface-attached array probe
RXRa = RXRa (Homo sapiens, UniProt P19793); assay: no ligand; PBM; 180 nM; PBS pH 7.4, 2% milk, 0.02% Triton X-100, 1 mM DTT, BSA, 0.4 mg/ml salmon testes DNA; conditions: tags: His cleaved; chain copies: 2; label: surface-attached array probe
VDR:RXRa = VDR:RXRa (Homo sapiens, UniProt P11473;P19793 full;full); assay: no ligand; PBM; 270 nM : 90 nM RXRa; PBS pH 7.4, 2% milk, 0.02% Triton X-100, 1 mM DTT, BSA, 0.4 mg/ml salmon testes DNA; conditions: tags: His kept;His cleaved; copies: 1;1; label: surface-attached array probe
Outline: (§1)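 Random background probes are the reference for binding z-scores. These scores derive from regression-normalized fluorescence on custom Agilent 4×180K protein-binding microarrays incubated 1 h with ligand-free nuclear receptor dimers. Binding was detected with antibodies against each partner (one per run).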

RARg:RXRa = RARg:RXRa (Homo sapiens, UniProt P13631;P19793 full;full); assay: as above; conditions: tags: His kept;His cleaved; copies: 1;1; label: surface-attached array probe
Outline: as §1

LXRb:RXRa = LXRb:RXRa (Homo sapiens, UniProt P55055;P19793 full;full); assay: as above; conditions: tags: His kept;His cleaved; copies: 1;1; label: surface-attached array probe
Outline: as §1

RARb:RXRa = RARb:RXRa (Homo sapiens, UniProt P10826;P19793 full;full); assay: as above; conditions: tags: His kept;His cleaved; copies: 1;1; label: surface-attached array probe
Outline: as §1

PPARa:RXRa = PPARa:RXRa (Homo sapiens, UniProt Q07869;P19793 full;full); assay: as above; conditions: tags: GST kept;His cleaved; copies: 1;1; label: surface-attached array probe
Outline: as §1

FXR:RXRa = FXR:RXRa (Homo sapiens, UniProt Q96RI1;P19793 full;full); assay: as above; conditions: tags: His kept;His cleaved; copies: 1;1; label: surface-attached array probe
Outline: as §1

LXRa:RXRa = LXRa:RXRa (Homo sapiens, UniProt Q13133;P19793 full;full); assay: as above; conditions: tags: His kept;His cleaved; copies: 1;1; label: surface-attached array probe
Outline: as §1

Chain of LXRb:RXRa (P55055 whole entry, chain 1 of 2): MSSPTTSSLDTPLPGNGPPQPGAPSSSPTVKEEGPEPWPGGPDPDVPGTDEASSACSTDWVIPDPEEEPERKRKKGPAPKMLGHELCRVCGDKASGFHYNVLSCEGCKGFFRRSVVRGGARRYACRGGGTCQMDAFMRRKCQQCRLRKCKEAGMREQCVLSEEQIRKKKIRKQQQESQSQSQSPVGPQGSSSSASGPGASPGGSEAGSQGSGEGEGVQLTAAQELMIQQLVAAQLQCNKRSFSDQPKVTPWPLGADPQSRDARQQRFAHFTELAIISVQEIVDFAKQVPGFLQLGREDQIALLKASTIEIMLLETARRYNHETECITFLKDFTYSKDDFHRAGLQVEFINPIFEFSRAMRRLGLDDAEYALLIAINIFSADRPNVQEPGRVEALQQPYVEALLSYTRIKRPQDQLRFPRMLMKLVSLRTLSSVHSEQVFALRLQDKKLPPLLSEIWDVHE
Chain of LXRb:RXRa (P19793 whole entry, chain 2 of 2): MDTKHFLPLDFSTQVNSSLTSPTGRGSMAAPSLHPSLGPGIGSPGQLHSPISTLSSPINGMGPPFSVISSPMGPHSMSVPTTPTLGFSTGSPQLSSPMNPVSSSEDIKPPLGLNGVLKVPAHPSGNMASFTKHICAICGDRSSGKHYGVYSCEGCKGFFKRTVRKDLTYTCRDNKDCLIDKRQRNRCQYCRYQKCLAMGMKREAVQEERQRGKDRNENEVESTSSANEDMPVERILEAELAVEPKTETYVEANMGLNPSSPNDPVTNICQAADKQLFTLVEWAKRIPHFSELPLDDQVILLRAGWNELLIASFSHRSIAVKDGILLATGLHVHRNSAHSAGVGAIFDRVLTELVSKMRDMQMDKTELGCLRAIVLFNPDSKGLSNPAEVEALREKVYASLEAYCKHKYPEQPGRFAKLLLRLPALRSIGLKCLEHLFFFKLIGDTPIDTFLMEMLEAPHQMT
Chain of RARg:RXRa (P13631 whole entry, chain 1 of 2): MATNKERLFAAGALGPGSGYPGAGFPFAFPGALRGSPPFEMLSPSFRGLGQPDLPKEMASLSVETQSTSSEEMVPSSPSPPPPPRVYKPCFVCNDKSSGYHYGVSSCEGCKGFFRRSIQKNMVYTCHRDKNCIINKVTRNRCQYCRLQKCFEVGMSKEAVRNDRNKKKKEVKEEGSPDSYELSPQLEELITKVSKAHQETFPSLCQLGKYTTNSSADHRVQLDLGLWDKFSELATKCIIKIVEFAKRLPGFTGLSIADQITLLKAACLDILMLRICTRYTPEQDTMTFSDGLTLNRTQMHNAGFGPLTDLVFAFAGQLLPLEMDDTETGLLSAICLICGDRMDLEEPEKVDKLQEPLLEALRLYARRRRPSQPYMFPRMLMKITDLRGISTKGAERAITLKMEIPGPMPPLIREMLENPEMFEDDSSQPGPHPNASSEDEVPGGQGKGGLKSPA
Chain of RARg:RXRa (P19793 whole entry, chain 2 of 2): as the sequence (P19793 whole entry, chain 2 of 2) above
Chain of PPARg:RXRa (P37231 29-505, chain 1 of 2): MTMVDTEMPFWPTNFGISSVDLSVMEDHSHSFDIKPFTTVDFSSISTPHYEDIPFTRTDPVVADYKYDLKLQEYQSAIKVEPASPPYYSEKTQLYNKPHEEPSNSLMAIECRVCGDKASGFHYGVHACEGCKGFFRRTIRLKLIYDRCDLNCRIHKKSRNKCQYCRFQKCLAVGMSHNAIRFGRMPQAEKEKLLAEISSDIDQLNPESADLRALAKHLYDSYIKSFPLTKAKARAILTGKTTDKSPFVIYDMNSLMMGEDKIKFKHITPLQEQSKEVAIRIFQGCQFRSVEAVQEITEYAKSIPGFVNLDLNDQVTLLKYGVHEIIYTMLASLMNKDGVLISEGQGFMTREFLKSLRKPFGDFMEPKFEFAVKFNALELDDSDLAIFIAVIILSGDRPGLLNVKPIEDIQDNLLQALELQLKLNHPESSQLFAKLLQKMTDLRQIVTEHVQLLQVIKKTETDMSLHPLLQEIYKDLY
Chain of PPARg:RXRa (P19793 whole entry, chain 2 of 2): as the sequence (P19793 whole entry, chain 2 of 2) above
Chain of RARb:RXRa (P10826 whole entry, chain 1 of 2): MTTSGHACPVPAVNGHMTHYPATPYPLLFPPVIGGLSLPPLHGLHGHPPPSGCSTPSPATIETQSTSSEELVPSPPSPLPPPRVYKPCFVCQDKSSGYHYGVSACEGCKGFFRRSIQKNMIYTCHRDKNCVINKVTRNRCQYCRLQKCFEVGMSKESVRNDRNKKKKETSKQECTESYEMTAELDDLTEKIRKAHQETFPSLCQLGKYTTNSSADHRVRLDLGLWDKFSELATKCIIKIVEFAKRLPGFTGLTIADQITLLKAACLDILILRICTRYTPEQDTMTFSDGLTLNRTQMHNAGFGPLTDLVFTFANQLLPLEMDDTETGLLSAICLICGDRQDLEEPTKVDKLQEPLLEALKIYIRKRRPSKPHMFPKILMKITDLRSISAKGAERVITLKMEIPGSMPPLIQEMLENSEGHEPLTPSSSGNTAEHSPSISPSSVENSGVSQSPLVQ
Chain of RARb:RXRa (P19793 whole entry, chain 2 of 2): as the sequence (P19793 whole entry, chain 2 of 2) above
Chain of PPARa:RXRa (Q07869 whole entry, chain 1 of 2): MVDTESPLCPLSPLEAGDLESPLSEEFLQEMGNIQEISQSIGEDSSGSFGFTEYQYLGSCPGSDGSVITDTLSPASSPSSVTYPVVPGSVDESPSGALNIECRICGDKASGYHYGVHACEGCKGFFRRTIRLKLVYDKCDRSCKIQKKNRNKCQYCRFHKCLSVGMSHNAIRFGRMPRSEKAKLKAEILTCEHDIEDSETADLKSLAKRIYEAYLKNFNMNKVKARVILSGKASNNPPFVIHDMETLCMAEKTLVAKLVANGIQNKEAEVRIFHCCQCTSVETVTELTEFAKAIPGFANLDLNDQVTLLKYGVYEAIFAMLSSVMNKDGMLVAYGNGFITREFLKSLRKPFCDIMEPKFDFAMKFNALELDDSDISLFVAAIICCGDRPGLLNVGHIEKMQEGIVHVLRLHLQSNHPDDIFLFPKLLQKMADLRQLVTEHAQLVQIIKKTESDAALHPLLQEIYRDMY
Chain of PPARa:RXRa (P19793 whole entry, chain 2 of 2): as the sequence (P19793 whole entry, chain 2 of 2) above
Chain of LXRa:RXRa (Q13133 whole entry, chain 1 of 2): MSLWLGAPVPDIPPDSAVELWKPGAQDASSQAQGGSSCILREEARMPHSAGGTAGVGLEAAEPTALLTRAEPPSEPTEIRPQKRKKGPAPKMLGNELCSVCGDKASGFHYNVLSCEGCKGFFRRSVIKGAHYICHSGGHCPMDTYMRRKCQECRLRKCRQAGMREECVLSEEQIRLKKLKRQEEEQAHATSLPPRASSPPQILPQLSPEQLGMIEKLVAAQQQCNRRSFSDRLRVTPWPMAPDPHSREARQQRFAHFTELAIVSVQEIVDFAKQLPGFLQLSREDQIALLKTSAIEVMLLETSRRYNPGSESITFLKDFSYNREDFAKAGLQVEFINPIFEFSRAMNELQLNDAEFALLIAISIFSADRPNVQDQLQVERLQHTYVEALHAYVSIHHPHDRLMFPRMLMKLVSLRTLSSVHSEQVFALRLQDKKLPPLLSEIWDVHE
Chain of LXRa:RXRa (P19793 whole entry, chain 2 of 2): as the sequence (P19793 whole entry, chain 2 of 2) above
Chain of RXRa (P19793 whole entry): as the sequence (P19793 whole entry, chain 2 of 2) above
Chain of FXR:RXRa (Q96RI1 whole entry, chain 1 of 2): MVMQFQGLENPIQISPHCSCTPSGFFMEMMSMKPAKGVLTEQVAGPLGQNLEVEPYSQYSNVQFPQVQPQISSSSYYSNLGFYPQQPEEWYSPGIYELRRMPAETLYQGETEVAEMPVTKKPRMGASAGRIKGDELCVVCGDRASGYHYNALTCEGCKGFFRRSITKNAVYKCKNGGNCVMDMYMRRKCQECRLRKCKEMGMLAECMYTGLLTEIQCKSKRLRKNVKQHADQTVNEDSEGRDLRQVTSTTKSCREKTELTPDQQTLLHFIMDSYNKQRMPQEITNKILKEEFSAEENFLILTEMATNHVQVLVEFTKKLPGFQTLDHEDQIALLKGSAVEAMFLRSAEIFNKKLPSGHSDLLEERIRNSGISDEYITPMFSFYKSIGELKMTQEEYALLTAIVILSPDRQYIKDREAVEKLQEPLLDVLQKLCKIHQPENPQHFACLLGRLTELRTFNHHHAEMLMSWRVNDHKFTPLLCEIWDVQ
Chain of FXR:RXRa (P19793 whole entry, chain 2 of 2): as the sequence (P19793 whole entry, chain 2 of 2) above
Chain of VDR:RXRa (P11473 whole entry, chain 1 of 2): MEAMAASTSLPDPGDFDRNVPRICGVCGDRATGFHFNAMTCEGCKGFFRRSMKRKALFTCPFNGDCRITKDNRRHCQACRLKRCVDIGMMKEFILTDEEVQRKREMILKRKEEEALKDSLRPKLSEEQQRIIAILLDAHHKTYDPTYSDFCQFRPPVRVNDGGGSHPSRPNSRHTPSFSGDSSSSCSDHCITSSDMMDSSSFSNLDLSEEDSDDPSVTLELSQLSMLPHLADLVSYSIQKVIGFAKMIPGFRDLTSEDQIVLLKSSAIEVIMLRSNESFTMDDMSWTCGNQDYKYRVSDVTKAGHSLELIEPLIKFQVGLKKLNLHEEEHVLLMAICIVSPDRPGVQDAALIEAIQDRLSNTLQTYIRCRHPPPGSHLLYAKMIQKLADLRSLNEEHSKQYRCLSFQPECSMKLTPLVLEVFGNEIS
Chain of VDR:RXRa (P19793 whole entry, chain 2 of 2): as the sequence (P19793 whole entry, chain 2 of 2) above

Binder | binding signal (PPARg:RXRa) | binding signal (RXRa) | other results
NRC3_random_hg19_189_o1 (dsDNA) DNA 1: GCATCTGCCTTGCTCTTTCTACCTTTCAGTGTCTTTGCGATTGACAGCGTAGAATGAAGG DNA 2: CCTTCATTCTACGCTGTCAATCGCAAAGACACTGAAAGGTAGAAAGAGCAAGGCAGATGC | -1.57 PBM z-score against 500 random probes | -0.72 PBM z-score against 500 random probes | 
NRC3_wobSeed49_DR2_A17G_o1 (dsDNA) DNA 1: GCCAAACTAGGTCAAGGGGTCAAAGTCCGCTTCCCGGCGATTGACAGCGTAGAATGAAGG DNA 2: CCTTCATTCTACGCTGTCAATCGCCGGGAAGCGGACTTTGACCCCTTGACCTAGTTTGGC | 10.8 PBM z-score against 500 random probes |  | binding signal (VDR:RXRa): 6.63 PBM z-score against 500 random probes
NRC3_wobSeed5_DR0_A14T_o1 (dsDNA) DNA 1: GCCCTTACGGGTCTAGGTTATAGCACGGGTGGTACGGCGATTGACAGCGTAGAATGAAGG DNA 2: CCTTCATTCTACGCTGTCAATCGCCGTACCACCCGTGCTATAACCTAGACCCGTAAGGGC | 0.3 PBM z-score against 500 random probes | 0.15 PBM z-score against 500 random probes | binding signal (RARg:RXRa): 0.05 PBM z-score against 500 random probes
NRC3_random_hg19_123_o1 (dsDNA) DNA 1: GCGTGGAGAAAGTTCTGAGACTGAAGATGACTTTCCGCGATTGACAGCGTAGAATGAAGG DNA 2: CCTTCATTCTACGCTGTCAATCGCGGAAAGTCATCTTCAGTCTCAGAACTTTCTCCACGC | 0.25 PBM z-score against 500 random probes |  | binding signal (LXRb:RXRa): 0.02 PBM z-score against 500 random probes
NRC3_random_hg19_396_o1 (dsDNA) DNA 1: GCTTGTTGTGGTTGATGTTGTTCACTCTCAGTCTCCGCGATTGACAGCGTAGAATGAAGG DNA 2: CCTTCATTCTACGCTGTCAATCGCGGAGACTGAGAGTGAACAACATCAACCACAACAAGC | -0.98 PBM z-score against 500 random probes |  | binding signal (RARb:RXRa): 0.5 PBM z-score against 500 random probes
NRC3_random_hg19_278_o1 (dsDNA) DNA 1: GCGCTACTTGGGAGGCTGAGATGGTAGAATCACTTGGCGATTGACAGCGTAGAATGAAGG DNA 2: CCTTCATTCTACGCTGTCAATCGCCAAGTGATTCTACCATCTCAGCCTCCCAAGTAGCGC | -0.02 PBM z-score against 500 random probes | -0.89 PBM z-score against 500 random probes | 
NRC3_random_hg19_479_o1 (dsDNA) DNA 1: GCAAGTAAACAGCCCTCTAGCTTGGGTGGAAATGTGGCGATTGACAGCGTAGAATGAAGG DNA 2: CCTTCATTCTACGCTGTCAATCGCCACATTTCCACCCAAGCTAGAGGGCTGTTTACTTGC | -0.63 PBM z-score against 500 random probes |  | binding signal (LXRb:RXRa): -0.48 PBM z-score against 500 random probes
NRC3_wobSeed66_DR2_A8G_o1 (dsDNA) DNA 1: GCAATACGGGGTCACTAGGCCAGAGTAGGTACGAATGCGATTGACAGCGTAGAATGAAGG DNA 2: CCTTCATTCTACGCTGTCAATCGCATTCGTACCTACTCTGGCCTAGTGACCCCGTATTGC | 10.2 PBM z-score against 500 random probes | 8.8 PBM z-score against 500 random probes | binding signal (PPARa:RXRa): 7.26 PBM z-score against 500 random probes; binding signal (FXR:RXRa): 7.97 PBM z-score against 500 random probes; binding signal (LXRb:RXRa): 6.54 PBM z-score against 500 random probes
NRC3_random_hg19_68_o1 (dsDNA) DNA 1: GCAGCAGTGAGGACCAATGGGCAGTCCAGGAGGAAAGCGATTGACAGCGTAGAATGAAGG DNA 2: CCTTCATTCTACGCTGTCAATCGCTTTCCTCCTGGACTGCCCATTGGTCCTCACTGCTGC | -0.26 PBM z-score against 500 random probes |  | binding signal (LXRa:RXRa): -0.72 PBM z-score against 500 random probes
NRC3_random_hg19_197_o1 (dsDNA) DNA 1: GCGCAACCTCTGCCTCTCAGGCTCAAGTGACCTTCCGCGATTGACAGCGTAGAATGAAGG DNA 2: CCTTCATTCTACGCTGTCAATCGCGGAAGGTCACTTGAGCCTGAGAGGCAGAGGTTGCGC | -0.35 PBM z-score against 500 random probes |  | binding signal (RARg:RXRa): 0.42 PBM z-score against 500 random probes; binding signal (RARb:RXRa): 0.45 PBM z-score against 500 random probes
NRC3_random_hg19_106_o1 (dsDNA) DNA 1: GCAAGGAATGTAATCTAACTCTGTATTCAAAGAAGAGCGATTGACAGCGTAGAATGAAGG DNA 2: CCTTCATTCTACGCTGTCAATCGCTCTTCTTTGAATACAGAGTTAGATTACATTCCTTGC | 0.5 PBM z-score against 500 random probes |  | binding signal (LXRa:RXRa): -0.1 PBM z-score against 500 random probes
NRC3_wobSeed46_DR1_C6T_o1 (dsDNA) DNA 1: GCTTATCAAGGTGAAAGGTCGTTGATGCACGCCTTGGCGATTGACAGCGTAGAATGAAGG DNA 2: CCTTCATTCTACGCTGTCAATCGCCAAGGCGTGCATCAACGACCTTTCACCTTGATAAGC | 10.9 PBM z-score against 500 random probes |  | binding signal (RARb:RXRa): 3.04 PBM z-score against 500 random probes
NRC3_wobSeed46_DR1_C6A_o1 (dsDNA) DNA 1: GCTTAACAAGGTGAAAGGTCGTTGATGCACGCCTTGGCGATTGACAGCGTAGAATGAAGG DNA 2: CCTTCATTCTACGCTGTCAATCGCCAAGGCGTGCATCAACGACCTTTCACCTTGTTAAGC | 10.4 PBM z-score against 500 random probes |  | binding signal (VDR:RXRa): 3.31 PBM z-score against 500 random probes
NRC3_wobSeed47_DR1_G20C_o1 (dsDNA) DNA 1: GCGGAACGAGGGCAAAGTTCATAGCATCTGTCGACGGCGATTGACAGCGTAGAATGAAGG DNA 2: CCTTCATTCTACGCTGTCAATCGCCGTCGACAGATGCTATGAACTTTGCCCTCGTTCCGC | 10.2 PBM z-score against 500 random probes |  | binding signal (LXRb:RXRa): 3.56 PBM z-score against 500 random probes
NRC3_wobSeed47_DR1_G12T_o1 (dsDNA) DNA 1: GCGGAACGAGGTCAAAGTTGATAGCATCTGTCGACGGCGATTGACAGCGTAGAATGAAGG DNA 2: CCTTCATTCTACGCTGTCAATCGCCGTCGACAGATGCTATCAACTTTGACCTCGTTCCGC | 10.5 PBM z-score against 500 random probes | 8.54 PBM z-score against 500 random probes | binding signal (PPARa:RXRa): 6.61 PBM z-score against 500 random probes; binding signal (FXR:RXRa): 8.06 PBM z-score against 500 random probes
NRC3_random_hg19_207_o1 (dsDNA) DNA 1: GCGCAAAGGCTGCGGTGCAATCCTGCATTCTTGTTCGCGATTGACAGCGTAGAATGAAGG DNA 2: CCTTCATTCTACGCTGTCAATCGCGAACAAGAATGCAGGATTGCACCGCAGCCTTTGCGC | -0.83 PBM z-score against 500 random probes |  | binding signal (VDR:RXRa): -0.78 PBM z-score against 500 random probes; binding signal (FXR:RXRa): -0.69 PBM z-score against 500 random probes
NRC3_random_hg19_404_o1 (dsDNA) DNA 1: GCACTTCGTGATCTGCCTGCCTTAGCCTCCCAAAGTGCGATTGACAGCGTAGAATGAAGG DNA 2: CCTTCATTCTACGCTGTCAATCGCACTTTGGGAGGCTAAGGCAGGCAGATCACGAAGTGC | -1.16 PBM z-score against 500 random probes |  | binding signal (RARb:RXRa): -0.25 PBM z-score against 500 random probes
NRC3_random_hg19_399_o1 (dsDNA) DNA 1: GCATGAGATTTCACTGTGTTAGCCAGGATGGTCTCCGCGATTGACAGCGTAGAATGAAGG DNA 2: CCTTCATTCTACGCTGTCAATCGCGGAGACCATCCTGGCTAACACAGTGAAATCTCATGC | 0.22 PBM z-score against 500 random probes | -0.2 PBM z-score against 500 random probes | 
NRC3_random_hg19_293_o1 (dsDNA) DNA 1: GCGGAGAGGTCTTAGGATGCATTGGAGGCACAGTGTGCGATTGACAGCGTAGAATGAAGG DNA 2: CCTTCATTCTACGCTGTCAATCGCACACTGTGCCTCCAATGCATCCTAAGACCTCTCCGC | 0.47 PBM z-score against 500 random probes |  | binding signal (VDR:RXRa): 0.06 PBM z-score against 500 random probes
NRC3_wobSeed69_DR2_C6A_o1 (dsDNA) DNA 1: GCAGTAAAAGTTCACTAGGTAACGTAAGATTCAGCTGCGATTGACAGCGTAGAATGAAGG DNA 2: CCTTCATTCTACGCTGTCAATCGCAGCTGAATCTTACGTTACCTAGTGAACTTTTACTGC | 5.13 PBM z-score against 500 random probes |  | binding signal (VDR:RXRa): 3.55 PBM z-score against 500 random probes
NRC3_wobSeed69_DR2_T11G_o1 (dsDNA) DNA 1: GCAGTCAAAGGTCACTAGGTAACGTAAGATTCAGCTGCGATTGACAGCGTAGAATGAAGG DNA 2: CCTTCATTCTACGCTGTCAATCGCAGCTGAATCTTACGTTACCTAGTGACCTTTGACTGC | 10.2 PBM z-score against 500 random probes | 7.84 PBM z-score against 500 random probes | binding signal (RARg:RXRa): 7.59 PBM z-score against 500 random probes; binding signal (RARb:RXRa): 5.88 PBM z-score against 500 random probes
NRC3_random_hg19_139_o1 (dsDNA) DNA 1: GCAGGATCGCTTGAGTCCAGAGTTTGAGACCAGCCTGCGATTGACAGCGTAGAATGAAGG DNA 2: CCTTCATTCTACGCTGTCAATCGCAGGCTGGTCTCAAACTCTGGACTCAAGCGATCCTGC | -0.51 PBM z-score against 500 random probes | -0.68 PBM z-score against 500 random probes | binding signal (PPARa:RXRa): -1.12 PBM z-score against 500 random probes
NRC3_wobSeed37_DR1_C6A_o1 (dsDNA) DNA 1: GCCGTACAAGGTCAAAGGTCAGTGAAGAGATGACGGGCGATTGACAGCGTAGAATGAAGG DNA 2: CCTTCATTCTACGCTGTCAATCGCCCGTCATCTCTTCACTGACCTTTGACCTTGTACGGC | 12.3 PBM z-score against 500 random probes |  | binding signal (LXRa:RXRa): 7.38 PBM z-score against 500 random probes; binding signal (FXR:RXRa): 8.85 PBM z-score against 500 random probes
